B1: γ9-cl3/δ2-cl3: wildtype γ9δ2TCR of T-cell clone 3 (SEQ ID 8 and 10) (protein, listed as Homo sapiens)
chain 1: MVSLLHASTLAVLGALCVYGAGHLEQPQISSTKTLSKTARLECVVSGITISATSVYWYRERPGEVIQFLVSISYDGTVRKESGIPSGKFEVDRIPETSTSTLTIHNVEKQDIATYYCALWEEELGKKIKVFGPGTKLIITDKQLDADVSPKPTIFLPSIAETKLQKAGTYLCLLEKFFPDVIKIHWEEKKSNTILGSQEGNTMKTNDTYMKFSWLTVPEKSLDKEHRCIVRHENNKNGVDQEIIFPPIKTDVITMDPKDNCSKDANDTLLLQLTNTSAYYMYLLLLLKSVVYFAIITCCLLRRTAFCCNGEKS
chain 2: MERISSLIHLSLFWAGVMSAIELVPEHQTVPVSIGVPATLRCSMKGEAIGNYYINWYRKTQGNTMTFIYREKDIYGPGFKDNFQGDIDIAKNLAVLKILAPSERDEGSYYCACDLLGYTDKLIFGKGTRVTVEPRSQPHTKPSVFVMKNGTNVACLVKEFYPKDIRINLVSSKKITEFDPAIVISPSGKYNAVKLGKYEDSNSVTCSVQHDNKTVHSTDFEVKTDSTDHVKPKETENTKQPSKSCHKPKAIVHTEKVNMMSLTVLGLRMLFAKTVAVNFLLTAKLFFL
B2: γ9-G115/δ2-G115: reference γ9δ2TCR of clone G115, γ9 chain SEQ ID NO.1 and δ2 chain SEQ ID NO.2, control (protein, listed as Homo sapiens)
chain 1: MVSLLHASTLAVLGALCVYGAGHLEQPQISSTKTLSKTARLECVVSGITISATSVYWYRERPGEVIQFLVSISYDGTVRKESGIPSGKFEVDRIPETSTSTLTIHNVEKQDIATYYCALWEAQQELGKKIKVFGPGTKLIITDKQLDADVSPKPTIFLPSIAETKLQKAGTYLCLLEKFFPDVIKIHWEEKKSNTILGSQEGNTMKTNDTYMKFSWLTVPEKSLDKEHRCIVRHENNKNGVDQEIIFPPIKTDVITMDPKDNCSKDANDTLLLQLTNTSAYYMYLLLLLKSVVYFAIITCCLLRRTAFCCNGEKS
chain 2: MERISSLIHLSLFWAGVMSAIELVPEHQTVPVSIGVPATLRCSMKGEAIGNYYINWYRKTQGNTMTFIYREKDIYGPGFKDNFQGDIDIAKNLAVLKILAPSERDEGSYYCACDTLGMGGEYTDKLIFGKGTRVTVEPRSQPHTKPSVFVMKNGTNVACLVKEFYPKDIRINLVSSKKITEFDPAIVISPSGKYNAVKLGKYEDSNSVTCSVQHDNKTVHSTDFEVKTDSTDHVKPKETENTKQPSKSCHKPKAIVHTEKVNMMSLTVLGLRMLFAKTVAVNFLLTAKLFFL

Experiments:
[1] = test system: Daudi; experiment: IFNγ ELISA of γ9δ2TCR-transduced T-cells against Daudi in the presence of pamidronate; assay type: cell-based; set-up: IFNγ secretion (max.): unit not given here; conditions: CD4+ transduced T-cells, pamidronate titration; for IFNγ secretion (max.): FIG. 1B
Procedure: (§1) 51Chromium-release assay for cell-mediated cytotoxicity was previously described. Target cells were labeled overnight with 100 μCu 51Cr (150 μCu for primary cells) and incubated for 5 h with transduced T-cells in five effector-to-target ratios (E:T) between 30:1 and 0.3:1. Fold change was calculated when compared to reactivity of engineered T-cells expressing unmutated γ9δ2TCR. IFN-γ ELISpot was performed using anti-hulFN-γmAb1-D1K (I) and mAb7-B6-1 (II) (Mabtech-Hamburg, Germany) following the manufacturer's recommended procedure. Target and effector cells (E:T 3:1) were incubated for 24 h in the presence of pamidronate (Calbiochem, Germany) where indicated. IFNγ ELISA was performed using ELISA-ready-go! Kit (eBioscience) following manufacturer's instructions. Effector and target cells (E:T 1:1) were incubated for 24 h in the presence of pamidronate as indicated. Where specified, fold change was calculated when compared to reactivity of engineered T-cells expressing unmutated γ9δ2TCR.
IFN-γELISA was performed using ELISA-ready-go! Kit (eBioscience) following manufacturers' instructions. Effector and target cells (E:T 1:1) were incubated for 24 h in the presence of pamidronate as indicated. Where specified, fold change was calculated based on IFN-γ secretion γ9-G115wt/6δ-G115wt transduced T-cells normalized to 1; for the side by side experiments based on γ9-3wt/δ9-3wt, γ9-5wt/69-5wt or γ9-G115wt/δ9-G115wt normalized to 1.

[2] = test system: Daudi; experiment: 51Cr-release assay of γ9δ2TCR-transduced T-cells against Daudi; assay type: cell-based; conditions: FIG. 1A, E:T 3:1, 5 h
Procedure: as §1
^51Chromium-release assay for cell-mediated cytotoxicity was previously described (Kuball et al., 2004). […] After 4-6 h ^51Cr-release was measured in the supernatant. Fold change was calculated based on ^51Cr-release of γ9-G115wt/69-G115wt transduced T-cells normalized to 1; for side by side experiments based on γ9-3wt/δ9-3wt, γ9-5wt/δ9-5wt or γ9-G115wt/69-G115wt normalized to 1.

[3] = Allo-reactivity of γ9δ2TCR-transduced T-cells; assay type: cell-based
[4] = test system: healthy CD34+ progenitor cells; experiment: IFNγ ELISpot against healthy CD34+ progenitor cells; assay type: cell-based; conditions: FIG. 5C
Procedure: as §1
Mabtech (Hamburg, Germany) following manufactures' recommended procedure (Besold et al., 2007). In all assays target and effector cells (E:T 3:1) were incubated for 24 h in the presence of pamidronate (Calbiochem, Germany) where indicated. […]

[5] = test system: Daudi-luciferase; experiment: Daudi-luciferase xenograft in Rag2−/−γc−/− mice, adoptive transfer of engineered T-cells; assay type: in vivo
Procedure: (§2) To induce tumour xenografts, sublethal total body irradiated (2 Gy), 11-17 weeks old RAG-2−/−/yc−/−-BALB/C mice were injected i.v. with 0.5×10^6 Daudi-Luc cells (a kind gift from Genmab Utrecht, The Netherlands) or 5×10^6 RPM I8226/S-Luc cells (Anton Martens, Utrecht, The Netherlands) together with 10^7 γ9δ2TCR+ transduced T-cells. The RAG−2^−/^−yc^−/−-BALB/C mice were originally obtained from AMCAS b.v. (Amsterdam, the Netherlands). Mice were bred and housed in the specific pathogen-free (SPF) breeding unit of the Central Animal Facility of the University of Utrecht. All animal experiments were conducted according to Institutional Guidelines after acquiring permission from the local Ethical Committee for Animal Experimentation, and in accordance with current Dutch laws on Animal Experimentation. All mice developed tumours, mainly growing in the bone marrow visualized in vivo once a week by Biospace bioluminescent imaging. […] Bioluminescence images were acquired using a third generation cooled GaAs intensified charge-coupled device camera, controlled by the Photo Vision software and analyzed with M^3Vision software (all from Photon Imager; Biospace Laboratory). […] Bioluminescence images were acquired and analyzed with M3Vision software (Photon Imager, Biospace Laboratory). […]

[6] = test system: RPMI8226/S-luciferase; experiment: RPMI8226/S-luciferase xenograft in Rag2−/−γc−/− mice, adoptive transfer of engineered T-cells; assay type: in vivo; conditions: day 35, n=7, one i.v. injection of 10^7 T-cells
Procedure: as §2

Molecule	IFNγ secretion (max.) [1]	reduced ability to lyse tumour cells vs control γ9-G115wt/δ2-G115wt [2]	IFNγ production (max.) ([1]; FIG. 1D)	allo-reactivity compared to mock-transduced cells [3]	recognition of CD34+ progenitor cells [4]	tumour outgrowth by bioluminescence imaging ([5]; Daudi, day 42, n=4, one i.v. injection of 10^7 T-cells)	protection against tumour growth (BLI) ([5]; one T-cell infusion, FIGS. 6A and 6B (Daudi and RPMI8226/S))	tumour outgrowth by bioluminescence imaging [6]
B1	600	50%						
B2	800		800 pg/mL	nearly abolished	not recognized	180.000 counts/min	loss of protection	210.000 counts/min

From patent US11686724B2, “Compositions comprising gamma 9 delta 2 T-cell receptors and methods of use thereof to treat cancer” (Gadeta B.V., priority 2012, dated 2023)
